Measurements taken from patent publication US20240091375A1, “AN ANTIBODY FRAGMENT BASED ANTIMICROBIAL CONJUGATE SELECTIVELY TARGETING PSEUDOMONAS” (priority 2020, published 2024).

Legend:
P. aeruginosa [1] = test: Kill kinetics by ATP measurement (bacterial live dead assay); format: cell-based, Pseudomonas aeruginosa; conditions: ATP at different time points, FIG. 7; Histatin 5 and Seq. ID 21 compared with each other
From the text: FIG. 7 is a representative graph showing the kill kinetics of Seq. ID 21, Seq. ID 6, on P. aeruginosa with Histatin 5, positive control—Meropenem, and negative controls—media and culture.
Kill kinetics was done by measuring the adenosine triphosphate (ATP) during different time points using the bacterial live dead assay. […] ID 21 was similar showing bactericidal activity was due to the released Histatin on contact with the Pseudomonas. A positive control used was antibacterial Meropenem drug to show the efficiency of killing. […] The VHH antibody Seq.

P. aeruginosa [2] = test: Turbidity test of P. aeruginosa culture; format: cell-based, Pseudomonas aeruginosa; conditions: treated versus untreated control, visual, FIG. 4b
Method: FIG. 4b is a representative image of turbidity test of P. aeruginosa culture in the presence (Treated) and the absence (Control) of purified Seq. ID 21;
FIG. 4b represents a turbidity test, wherein sample of the pathogen P. aeruginosa was either left untreated (Control) or was treated by addition of purified Seq. ID 21 (Treated) prodrug.

[3] = system: whole cell Pseudomonas spp.; test: Whole cell ELISA binding; conditions: FIG. 6a
From the text: FIG. 6a is a representative graph depicting the binding affinity of Seq. ID21 and Seq. ID 6 to whole cell Pseudomonas spp. in an ELISA assay;
Whole cell ELISA using Pseudomonas spp. were used to determine the binding properties of the conjugate with Seq. ID 21, and VHH Seq. ID 6. […] ID 21. Both the molecules Seq. ID 21 and Seq.

Pseudomonas aeruginosa = test: Microbiological agar-plate assay for bactericidal activity (MIC-99, MIC-50); format: cell-based; conditions: for MIC-50 (minimal inhibitory concentration for killing 50% microorganisms) / MIC-99 (minimal inhibitory concentration for killing 99% microorganisms): in vitro, agar-plate assay; for MIC-99 (minimal inhibitory concentration for killing 99% microorganisms): FIG. 5, Seq. ID6 value printed with 'anaerobic conditions'
Method: FIG. 5 is representative microbiological agar-plate assay to determine MIC-99 of purified Seq. ID 21, and Seq. ID 6;
Microbiology assays were done with the purified VHH with Seq. ID 6 and the antibody fragment based antimicrobial conjugate of Seq. ID 21 to see their bactericidal activity. As depicted in FIG. 5, the MIC-99 of the Seq. […] ID21 with a value less than 0.5 μM. The MIC-50 of Seq. ID 6 antibody fragment alone was less than 2.5 μM and that of Seq. ID 21 was less than 0.125 μM.

## Histatin 5 [reference compound]
P. aeruginosa [1]
  Bactericidal activity in kill kinetics: similar

B1: Seq. ID 21: 187 amino acid conjugate: human Histatin 5, Elastase B cleavage sequence RGGGLA, Gly-Ser linker, VHH Seq. ID6 (conjugate)
chain: MGDSHAKRHHGYKRKFHEKHHSHRGYDVRGGGLAGGGGSGGGGSGGGGSHMDVQLQESGGASVQPGGSLLISCEASGLASYSNYCIMWFRQPPGKEREGVAGINLRSGITYYAEAVRPRFTISADSVDGRFAISQDNARNTVYLQMNSLKPEDTAIYYCAAGNLCGGSWSGYRYWGQGTQVTVSSLE
modifications: Antibody fragment based antimicrobial conjugate
notes: ID6
P. aeruginosa [2]
  Turbidity of P. aeruginosa sample after treatment: visually reduced
[3]; ELISA
  Binding ability to whole cell Pseudomonas spp. after conversion of the antibody to conjugate: no loss of binding ability
[3]
  Biological activity: showed the desired biological activity
Pseudomonas aeruginosa; conjugate versus VHH alone
  Reduction of MIC-99 relative to Seq. ID6 antibody fragment alone: 20 fold
Pseudomonas aeruginosa
  MIC-50 (minimal inhibitory concentration for killing 50% microorganisms): less than 0.125 μM
  MIC-99 (minimal inhibitory concentration for killing 99% microorganisms): less than 0.5 μM
P. aeruginosa [1]
  Bactericidal activity in kill kinetics: similar

B2: Seq. ID 6: camelid heavy chain antibody variable region fragment (VHH) specific to Pseudomonas aeruginosa antigen C4 decarboxylase transporter (protein, listed as Camelus dromedarius)
VHH: DVQLQESGGASVQPGGSLLISCEASGLASYSNYCIMWFRQPPGKEREGVAGINLRSGITYYAEAVRPRFTISADSVDGRFAISQDNARNTVYLQMNSLKPEDTAIYYCAAGNLCGGSWSGYRYWGQGTQVTVSS
[3]
  Biological activity: showed the desired biological activity
Pseudomonas aeruginosa
  MIC-50 (minimal inhibitory concentration for killing 50% microorganisms): less than 2.5 μM
  MIC-99 (minimal inhibitory concentration for killing 99% microorganisms): 10 µM
